# Measured values taken from the DeepSol protein solubility set.
# Assay: soluble on expression in E. coli; label from the status in PepcDB or PDB records
row,Sequence,soluble on expression in E. coli
1,MEKGAPQNNADEEAKVEVPPPAPKTTSAERAPEKVSAEKAQEQEKSAMGSVPIPPEREKHIKERKTGYEYSIVTINYKPGTKFGLGIKNVFNKSIYVIKVEENSLVSGIFNVADRIIDVDGEPVYDNAKCKGLLVKALKEKKVCTLLIERGITESALKDATNEMNEEHTQSVMAPPDVKSIMRKLEAHNFLRKSPSCESAAAPNPVPSAMTKNKEGKGERKACILEDGHKSVMIRMDNEENRNKLKKVEPKEPPRRLDPKTPPKPAAPEPKPEGK,not soluble
2,MSLKLVKLETFSTEFVCFVRATAEDGAQGWGQVAPYYADITAQVLHRQVAPYALGMACEDIDAMLDIVRDREHKFPGSYLRRAMGGVDTALWDMHGRRAGKPVCVLIGGTPGPVRAYGSSMKRDITPRDEAARLVRLRDEQGFDAFKFRIGAEVGRDRDEWPGRTEEIVPTMRRAMGDDVALLVDANSCYSPARAIEVGRMLEQHGISHYEEPCPYWEFAQTKEVTDTLDLDITGGEQDCLMERWQTMIADRVVDVLQPDICYLGGLSRTLRVARMAEAAGMPITPHAANLSMVTLFTMHLLRAIPNAGKYLEFSIEGLDYYPWQQGLFTSDPYRIEEGHATVTDAPGWGVDVNPDWLARSDYRVSELGEGHHHHHH,soluble
3,MGHHHHHHSHMKNLVLKIISGSFPPVSLHYSYDLRSLVSQLFKRNPRDRPSVNSILEKGFIAKRIEKFLSPQLIAEEFCLKTFSKFGSQPIPAKRPASGQNSISVMPAQKITKPAAKYGIPLAYKKYGDKKLHEKKPLQKHKQAHQTPEKRVNTGEERRKISEEAARKRRLEFIEKEKKQKDQIISLMKAEQMKRQEKERLERINRAREQGWRNVLSAGGSGEVKAPFLGSGGTIAPSSFSSRGQYEHYHAIFDQMQQQRAEDNEAKWKREIYGRGLPERGILPGVRPGFPYGAAGHHHFPDADDIRKTLKRLKAVSKQANANRLDCDDP,not soluble
4,MGSDKIHHHHHHMKKIYKSLTVSAIVATVSLSALPQSLAITHESQPTKQQRTVLFDRSHGQTAGAADWVSDGAFSDYADSIQKQGYDVKAIDGHSNITEASLKSSKIFVIPEANIPFKESEQAAIVNYVKQGGNVVFISDHYNADRNLNRIDSSEAMNGYRRGAYEDMSKGMNAEEKSSTAMQGVKSSDWLSTNFGVRFRYNALGDLNTSNIVSSKESFGITEGVKSVSMHAGSTLAITNPEKAKGIVYTPEQLPAKSKWSHAVDQGIYNGGGKAEGPYVAISKVGKGKAAFIGDSSLVEDSSPKYVREDNGEKKKTYDGFKEQDNGKLLNNITAWMSKDSDGKSLKASGLTLDTKTKLLDFERPERSTEPEKEPWSQPPSGYKWYDPTTFKAGSYGSEKGADPQPNTPDDHTPPNQNVKISFDIPQNVSVNEPFEVTIHLKGFEANQTLENLRVGIYKEGGRQIGQFSSKDNDYNPPGYSTLPTVKADENGNATIKINAKVLESMEGSKIRLKLGDKTLITTDFK,not soluble
5,MGSDKIHHHHHHMPSPIDLHSHSTVSDGLLAPEALVAHAAEQGVKVLSLTDHDDTSGLAPAASAAAGHGMEFINGVEISVTWRRKTIHVVGLRVDPDHGPLREGLEKIRAGRHLRAENIAASLEKFGIKGSLEGAYAHARQGIIGRAHFARYLIDQGYASNMKAIFKRYLVKGKPGYVEHHWATLEEVVAWINGSGGVAVLAHPGRYDIGRSNMLLLLEEFRNLGGTAIEVVTGSHNADQFQEYAKLAHMFGLKSSMGSDYHGPGHGNIEMGRLPDLPRGCIPVWQDWPEIRSLNN,not soluble
6,MGHHHHHHSHMIKYYNRKTKQYEIEKVAGENYLNWTYSSPIGMSFLEALIKKKAFSSIYGSFCDSKISKGKVKKFIDSFDIDILESEKKPEAFKSFNDFFTRKLTKEARPFSTNKEILISPGDGRLLVYENIDLDNLVEIKGMGYSLKELIKDEKISSKYKNGICMILRLCPTDYHRFHFVDSGVCSATSKIKGSYYSVNPIALNKVKRLFCENKREWSILKSDNFKDILYIEVGATCVGSIIQTYKENTKVNKGDEKGYFKFGGSTVVLFFEKDSVKIDEDILEQTRLGYETKVFMGESIGKK,soluble
7,MKTTGAGQLGTQLGKIKTSLRQQIHTGVVSQGQKLPSERELSELFSTTRITIKDALVSLETEGLIYREERRGWYVSPERICYNPLSRSHFHQMIREQHRIAATQLISVRSEMAAGDYAKALDIEQMTPIHIIERLRCIDGRAVLFVENVLKASLFDGILAENLTMSLTGIYREKYGYETMRSRFDVIPTSAPAHVAKALNLAEGQPVLKICRVNYKQDGELMDCELEYWRPDAVMIRIDSVG,not soluble
8,MGSSHHHHHHSSGLVPRGSHMRPHGDTAKKPIIGILMQKCRNKVMKNYGRYYIAASYVKYLESAGARVVPVRLDLTEKDYEILFKSINGILFPGGSVDLRRSDYAKVAKIFYNLSIQSFDDGDYFPVWGTCLGFEELSLLISGECLLTATDTVDVAMPLNFTGGQLHSRMFQNFPTELLLSLAVEPLTANFHKWSLSVKNFTMNEKLKKFFNVLTTNTDGKIEFISTMEGYKYPVYGVQWHPEKAPYEWKNLDGISHAPNAVKTAFYLAEFFVNEARKNNHHFKSESEEEKALIYQFSPIYTGNISSFQQCYIFD,soluble
9,MDIEIENHPLEPFLPANARLLMLGSFPPQKKRWSMDFYYPNLNNDMWRIVGLLFFNNKDYFLNETRKAFCRERIISFLNDKGIALFDTASAIRRLQDNASDKFLEVVQPTDISRLLGQLPECKAIVTTGQKATDTLRAQFEVEEPKVGDFSEFVFDGRPVRLYRMPSSSRAYPLALDKKAAAYRTMYQDLQMLNIELEHHHHHH,soluble
10,MLARYLNLIGRRSASPYRPQRLPAKFDNVIVAMSSGVDSSVAAALFAGEFPNTRGVYMQNWSESQSLDDPGKEPCYERDWRDVNRVAKHLNIRVDKVNFEQDYWIDVFEPMLRGYSEGSTPNPDIGCNKFVKFGKLREWLDEKYGTGNYWLVTGHYARVMQEMNGKGLFHLLRSIYRPKDQSYYLSQINSTVLSSLLLPIGHLTKPEVRDLAKYAGLPTAEKPDSQGICFVNNSQHGKFKNFLKHYLPSSPGDIITVDPQSGAKTTWGRHDGLWSYTIGQKVGISMPQADPNYQGTWFVSEKLRDTNEILIVRGRDNPALYSDTMRIENFSSLGPREDTINAFQNTGALTLQFRSLQVPVQIKSCKLNRSADNLDITIHLASKQRAITPGQSCCLYIDDRVLGSGPISHVNNNDTHA,soluble
11,MGSDKIHHHHHHMGESASGSDRSQKARGAFRVRSLQIRYKTSRPEIRQSWRSMLQRERPCKGGREDFEKGRRGNFSSPLRSVSLQGDCRTQLRSGKEALQFRETRRHTEQGGITMKVVVGIPSYNNAETISHVARTAAQGIVDFFDGDGMIVNSDGGSADGTRERFMETDTFGLPKESFVYEGLPGKGSAMRAIMEFALKQDAEAVVFLDADLRSVKPWWVERLAGPVLKGEADYVTPFYLRHRFDGTITNNVCFPMTAVLYGKKVRQPIGGDFGVGRKLLEIYLGKPKEIWNTDVARFGIDIWMTTTAINESGRVVQAALGTKVHDVKDPGKHLKGMFLQVVGTLFELVITYENVWKEIWKIEDVPIYGETPQEEVPSMSIDIGNLKKLARETLEEVEYIDRGILSEVKESGTLSLSSWVDTLYRSAVQYRKTRDKKVVENLLPFYFARTARFAEEVKSLSDEEAERYVYEQLDVFLEKKHSLREEWKVEDKR,not soluble
12,MDNHAEAHWQNGWLQSIRHTPSPNFSPRETGETVSLIVLHNISLPPFEYGTDAVEKLFANRLDPDGHPFFSLIHTLRVSSHFLIKRDGETVQFVSCDNMAYHAGVSSFGGREKCNAFSIGIELEGCDFEPFAEAQYRSLEALLDAICRHYPVTAVTGHQDIAPGRKTDPGHFFDWRRIREKGFLVDRNAV,not soluble
13,MITPKGTHDAVAKFQKTDLHQDLDYIVLQQRRTQLETLINERESFVKNLCSLFHKIQNTKNYQEFVDVLAENRDLLREIFTVENGFQKQKWISNDDIPQIDWDKFALDINAYIAENDQLLALYEDGLL,not soluble
14,MLTDQEKIDLVNALDFVVIEPHTQSIYVHNDEKTNGVLAKVLHTISVDEYIESFKKGSLIDIFPAAMQEAGAEGFKDGQFVIMPKKFYVDQCYAMSKEIERLTNLNNLHNIKPNTYQGLIHLEHHHHHH,soluble
15,MDLLERLGLGGRRVLILHHDDLGLTHAQNGAYQALGLPTGSVMVPGAWASGVKGEDLGVHLVLTSEWPAPRMRPLTEGESLRDEAGYFPESLEALWRKARAEEVERELKAQIQAAAKLFSPTHLDAHQGAVLRPDLAEVYLRLAEAYRLVPLVPESLEGLGVPPPFLPELERLLYETPFPQVRFLDPYGLPPEERLGFYLDLAHLPPGLYYLVHHSALPTPEGRALPDWPTREADYFALSHPEVRRVLAEFHPLTWRAVREALF,soluble
16,KTSDANETEDHLESLICKVGEKSACSLESNLEGLAGVLEADLPNYKSKILRLLCTVARLLPEKLTIYTTLVGLLNARNYNFGGEFVEAMIRQLKESLKANNYNEAVYLVRFLSDLVNCHVIAAPSMVAMFENFVSVTQEEDVPQVRRDWYVYAFLSSLPWVGKELYEKKDAEMDRIFANTESYLKRRQKTHVPMLQVWTADKPHPQEEYLDCLWAQIQKLKKDRWQERHILRPYLAFDSILCEALQHNLPPFTPPPHTEDSVYPMPRVIFRMFDYTDDPEGPVMPGSHSVERFVIEENLHCIIKSHWKERKTCAAQLVSYPGKNKIPLNYHIVEVIFAELFQLPAPPHIDVMYTTLLIELCKLQPGSLPQVLAQATEMLYMRLDTMNTTCVDRFINWFSHHLSNFQFRWSWEDWSDCLSQDPESPKPKFVREVLEKCMRLSYHQRILDIVPPTFSALCPSNPTCIYKYGDESSNSLPGHSVALCLAVAFKSKATNDEIFSILKDVPNPNQDDDDDEGFSFNPLKIEVFVQTLLHLAAKSFSHSFSALAKFHEVFKTLAESDEGKLHVLRVMFEVWRNHPQMIAVLVDKMIRTQIVDCAAVANWIFSSELSRDFTRLFVWEILHSTIRKMNKHVGAQSEQKNLFLVIFQRFIMILTEHLVRCETDGTSVLTPWYKNCIERLQQIFLQHHQIIQQYMVTLENLLFTAELDPHILAVFQQFCALQA,soluble
17,MYQNILVPLDGSDNAYMALKHAVKLAQTFKSKLFLVNVIDITRLNAYSPAAYGGTLYTNLLKVAKDNSQDILDRGQQMASAAQVESLPIQVNSSPKASIATDIPKKYAIDLIVMGKSGTNAVSRILLGSTTAYVVQKAEVNVTVIN,not soluble
18,MALMSDKFLSIVIPAYNSEKYIEKNLMFLSRQTSNNFEVIVVDDGSTDNTCEVSEACLENFKINHRVIRCEENRGQSVARNIGINYSRGKYILFLDSDDFAENNLVQILERNMFNEPDIVFFDYKRIKEGDSVNVNIAQNFEFGKIKSGEEVFNAYKDNKIRLWTGSLVYNKEFLNKNKLRFLEGAHGAEDLNFIFKALLSSKKVRGIEDSLVFYCQRGDSLTNNPDIYKNITVVESMEDVAKFIDENKLDKKLKEAIEKEFTCEHIMYQILGYLNSETKKDTLSVLKNKNVKKYLKKATIKTNRYGRSMYTYMKMAAYFPNLFIKTYLKNTGKLEHHHHHH,soluble
19,MGSDKIHHHHHHMKYTIEEIRQMQEGQTFDCKSILIEPKHLATIIVAMANADGGMIAVGISDKTRRIEGVNQDKEHLNDILRTPLDFCVPSVSVTTDYVPCTDAEGRDNRVLLMHIPASPRLHANQADEVFWRVGDKSRKLTFDERLQLMYDKGERYYEDSTAYDATLDDIDMDAVKAYMKRIGYGKSAMEYLQENKGFVTYKGDVPQVSAACILLFGKHPQTFFPRARVRFIKYFGTEEKVGREMNVIKDVTFDGRILEQIQKTVEYLETQVKEHSYLGEDGIFKTDREYPKFVIQEMVVNSVCHRDYSIKGTEIQIKMFDDRLVFETPGKLPGIVRTDNIRHTHFSRNPKIAEFLKAYDYVKEFGEGVDRMCRELSALGVKEPQYNLVAFIMKATVCAKVLEERQGTNHFDQKRPESDQKSDQMRIILELIKSNPNISRTELSEKTGLHDSSVKRRLKTLVDEGLIQRVGPDKGGQWKVIGSL,not soluble
